± gives the standard deviation of the averaged measurements.
System: ATP
Assay: switch fluorescence ratio, 500 uM ATP over buffer (Cy3 cluster intensity, sum of 5 cycles each) (fold (ratio)); higher = stronger signal-on switching upon ATP binding; sequences stand for … in TCGTCGGCAGCGTCAGATGTGTATAAGAGACAGTTTTTTTTTTTTTTTTTTTTTTTTT…TC
Conditions: aptamer strand: ATP DNA aptamer (quencher-CACCTGGGGGAGTATTGCGGAGGAAGG + anchor), 100 nM annealed; ATP concentration: 500 uM
Procedure, shortened: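 The quencher-labelled ATP aptamer, at 100 nM, was annealed to Cy3-labelled switching-strand clusters on a modified Illumina MiSeq flow-cell. The clusters were imaged in selection buffer, then after 15 min with 500 uM ATP at 22 °C, and this buffer/ATP cycle ran five times with NaOH stripping and re-annealing between runs. Per-cluster fluorescence ratios, summed target-cycle over summed buffer-cycle Cy3 intensity, were averaged per switch-domain sequence. Clusters outside 100-1000 RFU were excluded.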
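Further: ATP exposure 15 min at 22 °C before imaging.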

Row | Sequence | switch fluorescence ratio
1 | AAGGATGCGA | 1.039 ± 0.0079
2 | AGGCTTAGG | 0.957 ± 0.0032
3 | TCGATGCTGG | 0.982 ± 0.084
4 | TATAGGGGTG | 1.03 ± 0.039
5 | TTGCATTTTC | 1.09 ± 0.11
6 | TCATGGGGGG | 1.007 ± 0.01
7 | GGAAGGATTC | 0.999 ± 0.013
8 | GGAGTCGGGC | 0.981 ± 0.04
9 | TTCGTCTTTT | 0.98 ± 0.016
10 | TATGGTGGGT | 0.995 ± 0.027
11 | CCGGGGAGGA | 1.06 ± 0.026
12 | TTAGAAGACT | 1.08 ± 0.08
13 | CCTTTCAGGA | 0.9993 ± 0.0015
14 | TAGAGGTGGG | 1.21 ± 0.34
15 | TGCTGGGCTG | 1.01 ± 0.025
16 | TGAAAGGCGT | 0.9862 ± 0.0072
17 | CGGGAGCTTT | 1.07 ± 0.012
18 | GTAATTAAGG | 0.996 ± 0.029
19 | CTTGTTTGAC | 0.988 ± 0.044
20 | AGCAAGTCAG | 1.07 ± 0.013
21 | TTGGACTCGG | 0.997 ± 0.034
22 | GGGGTACTAC | 1.003 ± 0.0053
23 | GGGAAAAGGG | 0.998 ± 0.035

Row | Sequence | switch fluorescence ratio
24 | AATCGGGCGT | 0.982 ± 0.052
25 | GGGTTGTTGC | 1 ± 0.037
26 | TGGGGTGGTT | 1.03 ± 0.015
27 | TGGGTTTAAT | 1.03 ± 0.018
28 | TCGGGGGTCG | 0.954 ± 0.097
29 | GCGGGGTGGG | 0.9835 ± 0.0051
30 | CGCGCCCCTT | 1.13 ± 0.015
31 | GCGGGAAAGT | 0.9568 ± 0.009
32 | AATAAAGCGT | 0.983 ± 0.028
33 | GTTGATCAAT | 1.03 ± 0.031
34 | GGTGGGGAGA | 1.017 ± 0.0086
35 | GTCGTACGTT | 1.06 ± 0.025
36 | ATGGGCCCT | 0.997 ± 0.031
37 | GGGGCCGTCA | 0.987 ± 0.031
38 | AATGTTGGGA | 0.995 ± 0.015
39 | AGAATGTATG | 0.994 ± 0.021
40 | TCAGAGGCGG | 1 ± 0.011
41 | TCGGCTATG | 1.12 ± 0.15
42 | AAATTAGTGT | 0.968 ± 0.018
43 | CCTGGGGGAA | 1.025 ± 0.0073
44 | GTGGGGATTT | 1.01 ± 0.013
45 | TGAATGGGGG | 1.01 ± 0.045
46 | AGCTACCTTC | 1.42 ± 0.041

Row | Sequence | switch fluorescence ratio
47 | CACGGGTATT | 1.013 ± 0.0028
48 | GATCACTATA | 1.03 ± 0.054
49 | TGTTGGCGGG | 0.989 ± 0.015
50 | GTGATAAGAG | 0.999 ± 0.013
51 | TACGCTTATA | 1.19 ± 0.042
52 | GGGTACCTGT | 1.01 ± 0.034
53 | AATGCCGGCC | 1.08 ± 0.028
54 | GCACTTTACG | 1.28 ± 0.06
55 | TGGTTGGGTA | 0.997 ± 0.018
56 | TTGAAGTAAG | 0.994 ± 0.019
57 | CAGAAGTCTC | 1 ± 0.014
58 | TTATTAGATG | 0.997 ± 0.018
59 | TGATATGTAA | 1.021 ± 0.0094
60 | TCGGACTCTT | 1.01 ± 0.024
61 | AGTGGACAGC | 1 ± 0.031
62 | CCCTTTTTTT | 1.07 ± 0.037
63 | CCTGGGTGTG | 1.05 ± 0.11
64 | AGAGGGGAGT | 1.021 ± 0.0016
65 | TTGGCGGAGT | 1.01 ± 0.032
66 | TGCAGTCATG | 0.995 ± 0.03
67 | GGGGGGCTTC | 0.975 ± 0.019
68 | ATATTTTTT | 0.9892 ± 0.0038
69 | ACAATCTCTT | 1.02 ± 0.025

Row | Sequence | switch fluorescence ratio
70 | TGAGATTAAA | 1.01 ± 0.0098
71 | TGAGAGAGAA | 1.01 ± 0.019
72 | CCCTGGGTCT | 1.028 ± 0.0089
73 | GGTTGTGCGA | 0.98322 ± 0.00037
74 | AAGAAGAGGT | 1.15 ± 0.17
75 | TCCGTTGGTG | 1.01 ± 0.072
76 | TCACATTAAC | 1.04 ± 0.066
77 | ACATTCATCG | 1.06 ± 0.034
78 | AGGCCGTCCT | 1.02 ± 0.1
79 | CGACATGGTC | 1.02 ± 0.015
80 | TGGTAAATGG | 1.01 ± 0.019
81 | AACAGTTAGG | 0.9762 ± 0.0069
82 | TACGTTACTC | 1.56 ± 0.018
83 | GGTCCTGGGC | 1.01 ± 0.013
84 | AAATCGTAGT | 0.9885 ± 0.0069
85 | GTTTGAATTT | 0.989 ± 0.027
86 | TTTGGATAGA | 0.998 ± 0.025
87 | TTCTTGGCGG | 1 ± 0.07
88 | TTGGTTGAAC | 0.946 ± 0.032
89 | TTGGACGGGG | 1.07 ± 0.035
90 | ATTTTTTTAT | 0.995 ± 0.017
91 | TTCGGGGCTT | 0.983 ± 0.035
92 | TTGGGGAGTT | 1.01 ± 0.044

Row | Sequence | switch fluorescence ratio
93 | GACGGCGTCG | 0.974 ± 0.011
94 | ATTGTTTTTC | 1.04 ± 0.073
95 | CCTGAATTTC | 1.12 ± 0.14
96 | GGGTGGGGAA | 0.963 ± 0.075
97 | TAGAAGGTGG | 1.04 ± 0.073
98 | GGAATGGATA | 1 ± 0.035
99 | AAAAAAGTAG | 1.03 ± 0.012
100 | GGCCCTTCGG | 0.9987 ± 0.0091
101 | ATCGGAGCCA | 1.02 ± 0.047
102 | GGTTAAGCTT | 1.007 ± 0.0078
103 | AATGGTGGCC | 1 ± 0.018
104 | GATTTAGGTT | 0.999 ± 0.015
105 | TACAAGCGTA | 0.992 ± 0.014
106 | TAGTAAGGGG | 0.969 ± 0.051
107 | ACTTAGCGGT | 1.07 ± 0.051
108 | CTGTAATGTT | 0.992 ± 0.011
109 | CTTAATTTTG | 0.973 ± 0.027
110 | TTATTGTGGA | 0.9885 ± 0.0023
111 | TAAGTGTTAG | 1.013 ± 0.0074
112 | ACTATTATTC | 1.05 ± 0.034
113 | GGCTGTTGGT | 0.9655 ± 0.0072
114 | ATTAGAGGTG | 1.08 ± 0.03
115 | TTTCAGTTTC | 1.02 ± 0.043

Row | Sequence | switch fluorescence ratio
116 | GATGTACACG | 1.013 ± 0.003
117 | TTTGGGGCCT | 1.06 ± 0.15
118 | CGTGTCGCGC | 1.002 ± 0.01
119 | CGATCGTAAT | 2.1 ± 0.036
120 | TAGGGCATGT | 0.9798 ± 0.0026
121 | GCCCAATTTT | 0.998 ± 0.034
122 | TAAAAGAAAA | 1 ± 0.062
123 | GTTAGTTTTT | 0.986 ± 0.02
124 | GGGGTTACGC | 1.03 ± 0.059
125 | AAATTTTGAA | 0.977 ± 0.021
126 | CTCATTTGGT | 0.989 ± 0.028
127 | GTTGGAGGAG | 0.992 ± 0.026
128 | TTCGTACTAT | 0.993 ± 0.039
129 | GACCAAGGGT | 0.978 ± 0.012
130 | GCCAAAGATT | 1 ± 0.029
131 | ACGAGTGTTG | 1.03 ± 0.037
132 | TTTCTAGGTC | 1.015 ± 0.0048
133 | GTAATTTGCA | 0.9986 ± 0.0055
134 | AAGCAGGGGC | 1.14 ± 0.16
135 | TATTACAGGT | 1.03 ± 0.0089
136 | CCAGGGAGCC | 1.1 ± 0.17
137 | ATAAAGCATA | 1.03 ± 0.026
138 | AAGAGGTGGG | 0.99 ± 0.024

Row | Sequence | switch fluorescence ratio
139 | ATAATAATGT | 1.002 ± 0.0045
140 | GGCCAAGGAA | 0.9812 ± 0.0074
141 | TATATTGAGG | 0.991 ± 0.042
142 | TTTTTCTACC | 1.035 ± 0.0091
143 | AGGCTTAATC | 0.9903 ± 0.0069
144 | GATGAATGCT | 0.9814 ± 0.0034
145 | CCGCGTACGG | 2.03 ± 0.22
146 | ATAGGGGAAA | 0.987 ± 0.024
147 | ATTGAGATCG | 1.01 ± 0.033
148 | TTGACCTGAG | 1.08 ± 0.013
149 | CGAAGTTGAC | 1.63 ± 0.13
150 | TATCATTTTG | 0.986 ± 0.057
151 | ACTTGTTTCG | 0.961 ± 0.037
152 | ATGGTGGCAG | 0.997 ± 0.054
153 | TTCATTTGTT | 1.11 ± 0.16
154 | CTTGCCGATT | 0.968 ± 0.029
155 | GTTTCGGGTG | 1.64 ± 0.84
156 | GAGGAGGTTG | 1.027 ± 0.003
157 | GTGGTACATA | 0.981 ± 0.022

Source: the supplement of paper PMC10126150
